Measurements as given in patent US20200283537A1 (UNIVERSITY OF VIRGINIA PATENT FOUNDATION, published 2020).

Tests used:
[1] = molecular target: Human death receptor 5 (DR5/TRAIL-R2) on cancer cells (human, UniProt O14763 56-440); assay: cell-based or functional assay
[2] = molecular target: Human folate receptor alpha-1 (FOLR1) on ovarian cancer cells (human, UniProt P15328 25-234); assay: cell-based or functional assay
[3] = molecular target: T1, Recombinant DR5 (rDR5), extracellular domain of DR5/TRAIL-R2 fused to IgG4-Fc; assay: ELISA on coated rDR5-IgG4-Fc (FIG. 12D)
T1 construct: It was biotinylated for BLI; also called rDR5-IgG4; DR5-Fc
Protocol: (D) IgG4-Fc tagged rDR5 receptor was coated in 96 well plates overnight.
Binding specificity and affinity of various described IgG1 subclasses were determined by ELISA using the recombinant extracellular domain of FOLR1 and/or DR5/TRAIL-R2. For coating 96-well ELISA plates (Olympus), the protein solutions (2 μg/ml) were prepared in coating buffer (100 mM Sodium Bicarbonate pH 9.2) and 100 μl was distributed in each well. The plates were then incubated overnight at 4° C. Next day, the unbound areas were blocked by cell culture media containing 10% FBS, 1% BSA and 0.5% sodium azide for 2 hr at room temperature. […] After washing with PBS solution containing 0.1% Tween20, the plates were incubated for 1 hr with horseradish peroxidase (HRP) conjugated anti-human IgG1 (Thermo Scientific, A10648). Detection was performed using a two-component peroxidase substrate kit (BD biosciences) and the reaction was stopped with the addition of 2 N Sulfuric acid. Absorbance at 450 nm was immediately recorded using a Synergy Spectrophotometer (BioTech), and background absorbance from negative control samples was subtracted. The antibody affinities (Kd) were calculated by non-linear regression analysis using GraphPad Prism software.

Sequence of Human folate receptor alpha-1 (FOLR1) on ovarian cancer cells (P15328 25-234): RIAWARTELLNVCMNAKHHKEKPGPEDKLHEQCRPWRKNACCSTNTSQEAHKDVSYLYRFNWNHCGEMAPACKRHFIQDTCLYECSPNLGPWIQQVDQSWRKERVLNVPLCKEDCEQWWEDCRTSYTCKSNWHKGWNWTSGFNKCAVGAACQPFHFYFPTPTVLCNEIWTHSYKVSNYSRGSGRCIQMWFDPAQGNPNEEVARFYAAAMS

B1: BaCa-1 (Bispecific-Anchored Cytotoxicity-Activator-1; farletuzumab IgG1 with a lexatumumab scFv at the C-terminus of the heavy chain) (bispecific antibody)
heavy: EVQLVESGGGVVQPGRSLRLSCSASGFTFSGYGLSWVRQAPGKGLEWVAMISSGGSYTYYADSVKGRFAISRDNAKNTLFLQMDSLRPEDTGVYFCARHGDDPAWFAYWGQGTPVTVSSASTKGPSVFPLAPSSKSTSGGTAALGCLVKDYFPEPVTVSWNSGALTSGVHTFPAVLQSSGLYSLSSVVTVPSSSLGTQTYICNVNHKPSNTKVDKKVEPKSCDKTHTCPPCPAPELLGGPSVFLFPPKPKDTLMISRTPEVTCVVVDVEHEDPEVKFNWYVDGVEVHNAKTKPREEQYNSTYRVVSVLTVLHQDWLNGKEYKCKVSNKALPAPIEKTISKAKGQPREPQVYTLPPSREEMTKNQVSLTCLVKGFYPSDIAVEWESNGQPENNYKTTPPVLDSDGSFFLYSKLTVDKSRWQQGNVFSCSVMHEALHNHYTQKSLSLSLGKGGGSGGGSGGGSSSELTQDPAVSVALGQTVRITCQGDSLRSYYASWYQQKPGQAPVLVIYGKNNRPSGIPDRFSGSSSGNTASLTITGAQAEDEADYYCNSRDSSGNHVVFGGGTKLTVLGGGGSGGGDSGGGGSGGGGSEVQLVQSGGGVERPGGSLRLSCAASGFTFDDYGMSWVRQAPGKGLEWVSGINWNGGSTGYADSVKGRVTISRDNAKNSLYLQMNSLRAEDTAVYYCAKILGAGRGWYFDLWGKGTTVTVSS
light: DIQLTQSPSSLSASVGDRVTITCSVSSSISSNNLHWYQQKPGKAPKPWIYGTSNLASGVPSRFSGSGSGTDYTFTISSLQPEDIATYYCQQWSSYPYMYTFGQGTKVEIKRTVAAPSVFIFPPSDEQLKSGTASVVCLLNNFYPREAKVQWKVDNALQSGNSQESVTEQDSKDSTYSLSSTLTLSKADYEKHKVYACEVTHQGLSSPVTKSFNRGEC
- IC50 of cell viability, Colo-205 cells [1]: 3.07 nM
- cell killing, OVCAR-4 (high FOLR1) over Colo-205 (low FOLR1) cells [2]: ~70 fold

B2: BaCa antibody labelled with IRDye 800CW (bispecific antibody, human IgG1, kappa)
heavy: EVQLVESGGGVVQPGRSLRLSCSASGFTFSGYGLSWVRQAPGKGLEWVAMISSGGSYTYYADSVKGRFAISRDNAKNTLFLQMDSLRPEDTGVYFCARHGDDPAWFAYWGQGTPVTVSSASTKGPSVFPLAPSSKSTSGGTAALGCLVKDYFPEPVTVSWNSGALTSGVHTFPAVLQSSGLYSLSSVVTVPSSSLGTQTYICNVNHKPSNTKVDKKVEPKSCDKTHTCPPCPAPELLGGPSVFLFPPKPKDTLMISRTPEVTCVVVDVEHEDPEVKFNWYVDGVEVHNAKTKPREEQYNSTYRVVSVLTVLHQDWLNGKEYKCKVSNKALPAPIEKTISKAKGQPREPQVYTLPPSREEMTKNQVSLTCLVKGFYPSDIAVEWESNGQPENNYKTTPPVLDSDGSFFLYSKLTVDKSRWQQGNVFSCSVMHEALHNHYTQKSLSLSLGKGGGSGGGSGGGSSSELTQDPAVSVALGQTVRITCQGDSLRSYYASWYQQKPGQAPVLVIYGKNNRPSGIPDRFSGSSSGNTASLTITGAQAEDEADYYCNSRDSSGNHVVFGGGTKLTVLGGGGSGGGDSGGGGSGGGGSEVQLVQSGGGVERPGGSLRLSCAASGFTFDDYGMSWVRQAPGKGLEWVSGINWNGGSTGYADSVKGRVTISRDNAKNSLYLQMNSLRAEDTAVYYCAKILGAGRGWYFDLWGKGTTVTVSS
light: DIQLTQSPSSLSASVGDRVTITCSVSSSISSNNLHWYQQKPGKAPKPWIYGTSNLASGVPSRFSGSGSGTDYTFTISSLQPEDIATYYCQQWSSYPYMYTFGQGTKVEIKRTVAAPSVFIFPPSDEQLKSGTASVVCLLNNFYPREAKVQWKVDNALQSGNSQESVTEQDSKDSTYSLSSTLTLSKADYEKHKVYACEVTHQGLSSPVTKSFNRGEC
modifications: IRDye 800CW NHS Ester label; sites not stated; IRDye 800CW NHS Ester label (0.04 mg dye per 1 mg of antibodies); sites not stated
notes: Lead BaCa (BaCa-1/HuBaCa), dye-conjugated; also called BaCa-IR800; IR800 labeled BaCa
- binding result [3]: binds
